Target: HA-epitope tagged E2F-4 (human) (UniProt Q16254)
Assay: cell-based or functional assay

Sequence of UniProt Q16254 (Q16254 whole entry): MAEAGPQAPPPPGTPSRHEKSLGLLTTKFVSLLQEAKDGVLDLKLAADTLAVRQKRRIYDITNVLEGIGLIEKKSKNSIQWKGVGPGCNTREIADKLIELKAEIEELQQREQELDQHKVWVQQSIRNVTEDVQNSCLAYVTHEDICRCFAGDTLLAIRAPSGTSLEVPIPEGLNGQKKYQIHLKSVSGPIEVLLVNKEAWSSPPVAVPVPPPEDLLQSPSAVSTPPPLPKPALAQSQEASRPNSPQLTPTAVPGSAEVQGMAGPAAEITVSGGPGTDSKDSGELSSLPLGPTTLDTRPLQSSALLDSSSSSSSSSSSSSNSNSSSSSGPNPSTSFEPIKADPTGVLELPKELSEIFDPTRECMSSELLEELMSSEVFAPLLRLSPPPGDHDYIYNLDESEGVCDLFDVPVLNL

## HA-tagged p107 (from UniProt P28749 1-1068)
  E2F-4 half life (pulse chase, immunoprecipitation with 12CA5, phosphorimager; free E2-F4 approximately 2-3 hours): 8 h

Source: patent publication US6368809
